Experimental data reported in EP1104310B1.

Columns and labels:
Test in all cases: cell-based or functional assay
[1] = biological target: CCR1 expressed on HOS-CD4 cells (UniProt P32246)
[2] = biological target: CCR4 expressed on HOS-CD4 cells (UniProt P51679)
[3] = biological target: CXCR4 expressed on HOS-CD4 cells (UniProt P61073)
[4] = biological target: CCR5 expressed on HOS-CD4 cells (UniProt P51681)
[5] = biological target: CCR3 expressed on HOS-CD4 cells (UniProt P51677)
Chain of UniProt P51677 (P51677 whole entry): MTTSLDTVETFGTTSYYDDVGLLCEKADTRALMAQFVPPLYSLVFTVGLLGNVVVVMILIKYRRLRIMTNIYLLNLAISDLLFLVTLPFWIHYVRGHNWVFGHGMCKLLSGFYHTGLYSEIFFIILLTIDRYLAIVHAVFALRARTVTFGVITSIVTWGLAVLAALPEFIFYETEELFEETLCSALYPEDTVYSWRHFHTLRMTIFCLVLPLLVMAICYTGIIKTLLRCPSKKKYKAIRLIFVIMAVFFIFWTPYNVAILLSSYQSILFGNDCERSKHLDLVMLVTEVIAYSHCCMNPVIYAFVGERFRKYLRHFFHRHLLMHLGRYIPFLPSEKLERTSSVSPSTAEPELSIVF

Chain of UniProt P51679 (P51679 whole entry): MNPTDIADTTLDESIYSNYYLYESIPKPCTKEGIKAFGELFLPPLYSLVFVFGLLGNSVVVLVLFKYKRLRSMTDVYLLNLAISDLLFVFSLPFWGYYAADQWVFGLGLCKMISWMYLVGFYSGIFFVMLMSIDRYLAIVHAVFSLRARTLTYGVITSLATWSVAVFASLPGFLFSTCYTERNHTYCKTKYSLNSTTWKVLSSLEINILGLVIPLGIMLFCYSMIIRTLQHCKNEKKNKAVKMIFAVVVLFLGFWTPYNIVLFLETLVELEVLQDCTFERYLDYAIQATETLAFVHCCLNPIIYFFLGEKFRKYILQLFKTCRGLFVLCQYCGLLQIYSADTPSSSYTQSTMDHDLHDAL
Chain of UniProt P61073 (P61073 whole entry): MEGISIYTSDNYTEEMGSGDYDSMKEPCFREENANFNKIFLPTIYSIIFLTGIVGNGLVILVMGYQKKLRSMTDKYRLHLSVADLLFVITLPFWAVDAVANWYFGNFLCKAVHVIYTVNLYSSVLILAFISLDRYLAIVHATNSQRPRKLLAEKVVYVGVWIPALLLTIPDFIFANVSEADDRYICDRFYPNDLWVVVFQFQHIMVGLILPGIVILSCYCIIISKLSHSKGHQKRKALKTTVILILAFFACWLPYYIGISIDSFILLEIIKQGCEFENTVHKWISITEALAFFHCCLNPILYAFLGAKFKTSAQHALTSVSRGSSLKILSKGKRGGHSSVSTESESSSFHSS
Chain of UniProt P51681 (P51681 whole entry): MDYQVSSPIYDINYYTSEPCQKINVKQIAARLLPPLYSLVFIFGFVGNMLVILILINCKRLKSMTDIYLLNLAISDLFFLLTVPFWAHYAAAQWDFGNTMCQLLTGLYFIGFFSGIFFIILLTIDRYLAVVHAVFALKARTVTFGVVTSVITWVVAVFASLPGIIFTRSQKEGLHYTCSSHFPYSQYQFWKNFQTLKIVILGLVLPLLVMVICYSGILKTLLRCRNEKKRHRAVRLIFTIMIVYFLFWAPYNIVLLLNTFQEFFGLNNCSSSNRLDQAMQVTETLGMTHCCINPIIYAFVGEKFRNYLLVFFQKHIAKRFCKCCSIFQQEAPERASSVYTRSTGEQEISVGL
Chain of UniProt P32246 (P32246 whole entry): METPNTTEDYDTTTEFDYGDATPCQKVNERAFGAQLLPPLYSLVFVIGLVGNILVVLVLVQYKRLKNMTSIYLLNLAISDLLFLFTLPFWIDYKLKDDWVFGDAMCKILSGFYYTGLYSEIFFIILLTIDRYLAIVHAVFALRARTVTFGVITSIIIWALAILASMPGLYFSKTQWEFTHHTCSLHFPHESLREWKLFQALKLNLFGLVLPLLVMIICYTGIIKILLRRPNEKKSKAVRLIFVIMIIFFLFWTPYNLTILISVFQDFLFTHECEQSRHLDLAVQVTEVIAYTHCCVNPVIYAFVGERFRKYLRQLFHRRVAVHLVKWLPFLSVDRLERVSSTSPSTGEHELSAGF

In the case of “HIV-1 AD8 envelope, expressed on pseudovirus”, the Infectivity Titer in HOS-CD4 Cells Expressing CCR1 [1] is reported as < 4 titer (1:n), the Infectivity Titer in HOS-CD4 Cells Expressing CCR4 [2] is reported as < 4 titer (1:n) and the Infectivity Titer in HOS-CD4 Cells Expressing CXCR4 [3] is reported as < 4 titer (1:n). For the same substance, the Infectivity Titer in HOS-CD4 Cells Expressing CCR5 [4] was 256 titer (1:n) and the Infectivity Titer in HOS-CD4 Cells Expressing CCR3 [5] was < 4 titer (1:n).

For “HIV-1 NL4-3 envelope, expressed on pseudovirus”, the Infectivity Titer in HOS-CD4 Cells Expressing CCR1 [1] was < 4 titer (1:n), the Infectivity Titer in HOS-CD4 Cells Expressing CCR4 [2] was < 4 titer (1:n) and the Infectivity Titer in HOS-CD4 Cells Expressing CXCR4 [3] was > 256 titer (1:n). For the same substance, the Infectivity Titer in HOS-CD4 Cells Expressing CCR5 [4] was 32 titer (1:n) and the Infectivity Titer in HOS-CD4 Cells Expressing CCR3 [5] was < 4 titer (1:n).
